Source: US20140106352A1 (DUKE UNIVERSITY, published 2014)

Molecular target: T1, nephrin (human, UniProt O60500 23-1241)
T1 construct: whole, on cells; Endogenous protein in fixed podocytes; also called NPHS1
T1 sequence (looked up): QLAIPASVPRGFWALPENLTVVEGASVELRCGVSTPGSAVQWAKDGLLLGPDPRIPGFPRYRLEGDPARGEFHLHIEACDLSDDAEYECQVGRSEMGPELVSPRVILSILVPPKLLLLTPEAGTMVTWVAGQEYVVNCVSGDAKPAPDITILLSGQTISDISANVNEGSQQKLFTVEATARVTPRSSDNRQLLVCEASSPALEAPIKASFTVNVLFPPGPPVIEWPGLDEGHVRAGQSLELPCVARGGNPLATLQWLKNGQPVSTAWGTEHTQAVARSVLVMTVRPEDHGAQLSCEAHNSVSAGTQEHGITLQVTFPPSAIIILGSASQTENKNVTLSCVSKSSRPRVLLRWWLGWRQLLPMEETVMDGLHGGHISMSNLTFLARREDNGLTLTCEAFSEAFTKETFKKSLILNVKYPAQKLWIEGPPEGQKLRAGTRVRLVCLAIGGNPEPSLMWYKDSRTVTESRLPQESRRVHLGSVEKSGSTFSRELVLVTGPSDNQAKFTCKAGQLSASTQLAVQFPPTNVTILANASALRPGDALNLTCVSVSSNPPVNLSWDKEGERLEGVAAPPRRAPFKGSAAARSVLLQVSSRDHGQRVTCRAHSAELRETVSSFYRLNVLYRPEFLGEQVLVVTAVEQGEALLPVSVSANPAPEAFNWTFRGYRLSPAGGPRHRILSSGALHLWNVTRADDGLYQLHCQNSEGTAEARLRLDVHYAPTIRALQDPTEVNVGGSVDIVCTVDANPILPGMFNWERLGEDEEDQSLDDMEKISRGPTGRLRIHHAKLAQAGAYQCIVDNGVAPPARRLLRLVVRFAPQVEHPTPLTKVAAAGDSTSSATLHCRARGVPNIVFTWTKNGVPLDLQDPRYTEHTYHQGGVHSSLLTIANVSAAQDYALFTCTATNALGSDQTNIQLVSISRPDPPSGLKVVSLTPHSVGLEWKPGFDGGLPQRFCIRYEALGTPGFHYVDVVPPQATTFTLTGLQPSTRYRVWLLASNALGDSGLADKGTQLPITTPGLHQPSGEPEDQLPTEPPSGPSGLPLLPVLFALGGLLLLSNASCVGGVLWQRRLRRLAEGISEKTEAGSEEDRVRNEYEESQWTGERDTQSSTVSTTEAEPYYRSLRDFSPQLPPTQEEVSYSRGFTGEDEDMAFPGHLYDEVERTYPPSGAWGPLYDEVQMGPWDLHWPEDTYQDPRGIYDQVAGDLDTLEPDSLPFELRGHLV
Test: only co-localisation by immunofluorescence in immortalized human podocytes (FIG. 3); no direct binding assay
Protocol: Endogenous anillin protein staining is shown in red. Co-immunolabeling for anti-CD2AP (A) anti-RhoA (B), anti-nephrin (C) anti-INF2 (D) and anti-F-actin are shown in green. Cell nuclei are stained with DAPI (blue). Anillin is strongly expressed in both the nucleus and cytoplasm and co-localizes with CD2AP, RhoA, nephrin, INF2, F-actin and TRPC6, in cultured immortalized human podocytes. IgG served as the control antibody (0).
Immortalized human podocytes were cultured on collagen I-coated coverslips (BD Biosciences) and treated as indicated. Cells were then fixed with 4% paraformaldehyde in PBS (Sigma). Podocytes were then washed twice with ice cold PBS prior to permeabilization with 0.1% Triton X-100 in PBS. Cells were then washed with ice cold PBS twice and blocked with buffer containing 5% goat serum prior to incubation with rabbit polyclonal Anillin antibody (Bethyl Laboratories, Montgomery, Tex.), mouse monoclonal Rho A antibody (Abeam), mouse monoclonal nephrin antibody (Abgent, Inc, San Diego, Calif.), and mouse polyclonal CD2AP antibody (Santa Cruz Biotechnologies, Santa Cruz, Calif.) overnight at 4° C. Cells were then washed with ice cold PBS and secondary Alexa Flora 488 antibody was applied (invitrogen) at a concentration of 1:1,000 for 1 hour at room temperature. […]

B1: anillin (ANLN), wild-type, endogenous in immortalized human podocytes (other)
chain: MDPFTEKLLERTRARRENLQRKMAERPTAAPRSMTHAKRARQPLSEASNQQPLSGGEEKSCTKPSPSKKRCSDNTEVEVSNLENKQPVESTSAKSCSPSPVSPQVQPQAADTISDSVAVPASLLGMRRGLNSRLEATAASSVKTRMQKLAEQRRRWDNDDMTDDIPESSLFSPMPSEEKAASPPRPLLSNASATPVGRRGRLANLAATICSWEDDVNHSFAKQNSVQEQPGTACLSKFSSASGASARINSSSVKQEATFCSQRDGDASLNKALSSSADDASLVNASISSSVKATSPVKSTTSITDAKSCEGQNPELLPKTPISPLKTGVSKPIVKSTLSQTVPSKGELSREICLQSQSKDKSTTPGGTGIKPFLERFGERCQEHSKESPARSTPHRTPIITPNTKAIQERLFKQDTSSSTTHLAQQLKQERQKELACLRGRFDKGNIWSAEKGGNSKSKQLETKQETHCQSTPLKKHQGVSKTQSLPVTEKVTENQIPAKNSSTEPKGFTECEMTKSSPLKITLFLEEDKSLKVTSDPKVEQKIEVIREIEMSVDDDDINSSKVINDLFSDVLEEGELDMEKSQEEMDQALAESSEEQEDALNISSMSLLAPLAQTVGVVSPESLVSTPRLELKDTSRSDESPKPGKFQRTRVPRAESGDSLGSEDRDLLYSIDAYRSQRFKETERPSIKQVIVRKEDVTSKLDEKNNAFPCQVNIKQKMQELNNEINMQQTVIYQASQALNCCVDEEHGKGSLEEAEAERLLLIATGKRTLLIDELNKLKNEGPQRKNKASPQSEFMPSKGSVTLSEIRLPLKADFVCSTVQKPDAANYYYLIILKAGAENMVATPLASTSNSLNGDALTFTTTFTLQDVSNDFEINIEVYSLVQKKDPSGLDKKKKTSKSKAITPKRLLTSITTKSNIHSSVMASPGGLSAVRTSNFALVGSYTLSLSSVGNTKFVLDKVPFLSSLEGHIYLKIKCQVNSSVEERGFLTIFEDVSGFGAWHRRWCVLSGNCISYWTYPDDEKRKNPIGRINLANCTSRQIEPANREFCARRNTFELITVRPQREDDRETLVSQCRDTLCVTKNWLSADTKEERDLWMQKLNQVLVDIRLWQPDACYKPIGKP
notes: Endogenous intracellular protein stained in fixed, permeabilised immortalized human podocytes
B1: binds.
